From the nanobody polyreactivity screen of Harvey et al. (2022) come the findings set out here.

This data set is described as follows: yeast display, Sf9 membrane polyspecificity reagent, FACS + sequencing; frameworks hold sequencing errors. Summed up: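 Using colony PCR, genes from sorted yeast display clones were amplified, then sequenced on MiSeq at 2 × 250 and filtered by CDR length. The clones had been stained with 10% biotinylated, detergent-solubilized Sf9 membrane reagent for 1 hour at 4 °C and sorted by FACS into low and high (top ~1%) gates on anti-HA and streptavidin fluorescence. Polyreactivity labels come from the gate of origin.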
In the case of “QVQLVESGGGLVQAGGSLRLICAASGRTFVYYAMGWYRQAPGKERELVAAISSSGGSTSYADSVKGRFTISRDNAKNTVYLQMNSLKPEDTAFYYCAADVSVSGYYYWGQGTQVTVSS”, the “polyreactivity (PSR sort gate)” value is listed as “high polyreactivity”.
As for “QVQLVESGGGLVQAGGSLRLICAASGRTFYYNAMGWYRQAPGKERELVAAINRGTGGTFYADSVKGRFTISRDNAKNTVYLQMNSLKPEDTAVYYCAADLDGSSEYEYWGQGTQVTVSS”, the entry is “low polyreactivity”; as for “QVQLVESGGGLVQAGGSLRLICAASGRTFYYYAMGWYRQAPGKERELVAAISKDGGRTYYADSVKGRFTISRDNAKHTVYLQMKSLKPEDTAVYYCAARYSSSRGLSSEYWGQGTQVTVSS”, “high polyreactivity”; as for “QVQLVESGGGLVQAGGSLRLICAASGRYYAMGWYRQAPGKERELVAAISSGGSTNYADSVKGRFTISRDNAKNTVYLQMNSLKPEDTAVYYCAALIRQLRYYLYYYWGQGTQVTVSS”, “high polyreactivity”.
With “QVQLVESGGGLVQAGGSLRLICAASGSFFSKYAMGWYRQAPGTEREWVAAISWSGTSTYYADSVKGRFTISRDNAKITVYLQLNSLKTEDNAVSYCAASSPRSLSLLGYWGQGTQVTESS” the entry was “low polyreactivity”; with “QVQLVESGGGLVQAGGSLRLICAASGSIFADYVMGWYRQAPGKERELVAAITIDGGSTYYADSVKGRFTISRDNAKNTVYLQMNSLKPEDTAVYYCAADSSGRSDSWGQGTQVTVSS”, “low polyreactivity”; with “QVQLVESGGGLVQAGGSLRLICAASGSIFDYNAMGWYRQAPGKERELVAAITSTDSTYADSVKGRFTISRDNAKNTVYLQMNSLKPEDTAVYYCNARYLAWTYYYPYDYWGQGTQVTVSS”, “low polyreactivity”.
As for “QVQLVESGGGLVQAGGSLRLICAASGSIFFWYTMGWYRQAPGKERELVATITGSGSSTTYADSVKGRFTISRDNAKYTVYLQMNSLKPEDTAVYYCAAADIIDHSFPYDYWGQGTQVTVSS”, the entry is “low polyreactivity”; as for “QVQLVESGGGLVQAGGSLRLICAASGSIFHIYMGWYRQAPGKEMEVVASISYRGGTTYYADSVKGRFTISRDNAKNSVYFQMNSLKPEDTAVYYCNVDRYFYHYGRYGHMDYWGQATQVTVSS”, “low polyreactivity”; as for “QVQLVESGGGLVQAGGSLRLICAASGSIFLHYGMGWYRQAPGKERELVAAISWRCRSTYYADSVKGRFTISRDNAKNTVYLQMNSLKPEDTAVYYCNAEYAFPLSGSGYWGQGTQVTVSS”, “low polyreactivity”.
For the sequence “QVQLVESGGGLVQAGGSLRLICAASGSIFLQYTMGWYRQAPGKERELVAAITESDGSTYYADSVKGRFTISRDNAKNTVYLQMNSLKPEDTGVYYCAAEVVYFKYWDKYDYWGQGTQVTVSS”, the “polyreactivity (PSR sort gate)” value is on record as “low polyreactivity”.
Take “QVQLVESGGGLVQAGGSLRLICAASGSIFRINAMGWYRQAPGKEMELVAAITGRVGSTYYADSVKGRFTISRDNAKNTVYLQMNSLKPEDTAVYYCAARAGSSRYTREYRYDYWGQGTQVTVSS”: the “polyreactivity (PSR sort gate)” value is “high polyreactivity”.
Turning to “QVQLVESGGGLVQAGGSLRLICAASGSIFTIYAMGWYRQAPGKERELVAAISYSDTSTYYADSVKGRFTISRDNAKNTVYLQMNSLKPEDTAVYYCAAEDLWYIAYWDDMDYWGQGTQVTVSS”, the “polyreactivity (PSR sort gate)” value was “low polyreactivity”.
As for “QVQLVESGGGLVQAGGSLRLICAASGSIFTRNAMGWYRQAPGKEREFVAAISSSGVSTYYADSVKGRFTISRDNAKNTVYLQMISLKPEDTAVYYCAARWGTKSGRYDYWGQGTQVTVSS”, the entry is “high polyreactivity”.
With “QVQLVESGGGLVQAGGSLRLICAASGSIFYHNGMGWYRQAPGKERELVAGISSTGSTYYADSVKGRVTLSRDNAKNTVYLQMNSLKPEDTAVYYCATDFGDIGDDAHSLGYDYWGQGTQVTVSS” the entry was “low polyreactivity”; with “QVQLVESGGGLVQAGGSLRLICAASGSIFYRNAMGWYRQAPGKERELVAAISSDGSTNYADSVKGRFTISRDNAKNTVYLQMNSLKPEDTAVYYCAAPWTQILDYWGQGTQVTVSS”, “low polyreactivity”; with “QVQLVESGGGLVQAGGSLRLICAASGSIFYRYAMGWYRQAHGKEREFVAAITYSSRTTYYADSVQGRFTISRDNAKNTVYLQMNSLKPEDTAVYYCAAELSSSYYRRAMDYCGQGTQVTVSS”, “high polyreactivity”.
With “QVQLVESGGGLVQAGGSLRLICAASGSIIGVNAMGWYRQAPGKERELVAAITSTGGSTYYADSVKGRFTISRDNAKNTVYLKMNSLKPEDTAVYYCNTHYSKSIGEGYAGFDYWGQGTQVTVSS” the entry was “low polyreactivity”; with “QVQLVESGGGLVQAGGSLRLICAASGSILTHYAMGWYRQAPGKERELVAAITWRGGSTYYADSVKGRFTISRDNAKNTVYLQMNSLKPEDTAVYYCNADYFGGGDYWGQGTQVTVSS”, “low polyreactivity”.
“QVQLVESGGGLVQAGGSLRLICAASGSTFAIYAMGWYRPAPGKERELVAAITGRSGSTYYADSVKGRFTISRDNAKNTVFLQMNSLKPEDTAVYYCAAQGGYRRTPYIHRDYWGQGTQVTVSS”: the “polyreactivity (PSR sort gate)” value was “high polyreactivity”.
With “QVQLVESGGGLVQAGGSLRLICAASGSTFGFNAMGWSRQAPGKERELLPLLWSGGSTYYADSVKGRFTISRDNAKNTVYLQMNSLIPEDTAVYYCNKDSPPITRYDYWGQGTQVTVSS” the entry was “low polyreactivity”; with “QVQLVESGGGLVQAGGSLRLICAASGSTFGYYAMGWYRKAPGKERELVAVITYSGGSTYYADSVKGRFTISRDNAKNTVNLQMNSLKPEDTSVYYCSAVIGVWYYYTYDYWGQGTQVTVSS”, “low polyreactivity”.
With “QVQLVESGGGLVQAGGSLRLICAASGSTFHAYAMGWYRQAPGKEREMVAAISWRGGSTYYADSVKGRFTISRDNAKNTVYLQMNSLKPEDTAVYYCAASVQGLFGTSGMEGVDYWGQGTQVTVSS” the entry was “high polyreactivity”; with “QVQLVESGGGLVQAGGSLRLICAASGSTFIGNVMGWYRQAPGKERELVAAITSTDSTDYADSVKGRFTISRDNAKNTVYLQMNSLKPEDTAVYYCNAEYEYGSAYWSGVYYWYNYWGQGTQVTVSS”, “high polyreactivity”.
In the case of “QVQLVESGGGLVQAGGSLRLICAASGSTFLGYAMGWYRQAPGKERELVAAISSGGGTYADSVKGRFTISRDNAKNSVYLQMNSLKPEDTAVYYCNADYSTPYRMDYWGQGTQVTVSS”, the “polyreactivity (PSR sort gate)” value is reported as “low polyreactivity”.
As for “QVQLVESGGGLVQAGGSLRLICAASGSTFPKYAMGWYRQAPGKERELVASISVTTGSTYYADSVKGRFTISRDYAKNTVYLQMNSLKPEDTAVYYCAKRTYSRKFRGAYNYWGQGTQVTVSS”, the entry is “high polyreactivity”.
Regarding “QVQLVESGGGLVQAGGSLRLICAASGSTFPVNAMGWYRQAPGKERELVAAIRSSTGRTYYADSVKGRFTISRDNAKNTVYLQMNSLKPEDTAVYYCAAYYLGQYEYDYWGQGTQVTVSS”, the “polyreactivity (PSR sort gate)” value is on record as “low polyreactivity”.
On to “QVQLVESGGGLVQAGGSLRLICAASGSTFRKYVMGWYRQAPGKERELVAAITKNGGSTYYADSVKGRFTISRDNAKNTVYLQMNSLKPEDTAVYYCATLRTGRVGNQDYDYWGQGTQVTVSS”, for which the “polyreactivity (PSR sort gate)” value is listed as “high polyreactivity”.
With “QVQLVESGGGLVQAGGSLRLICAASGSTFSQYTMGWYRQAPGKERELVAAITGSGGGTYYADSVKGRFTISRDNAKNTVYLHMESLKPVDTAVYYCAALTLNEKYTSRRGVYYWGQGSQVTVSS” the entry was “high polyreactivity”; with “QVQLVESGGGLVQAGGSLRLICAASGSTFSYYAMGWYRQAPGKEMELVAAITSGSSTNYADSVKGRFTISRDNAKNTVYLQMNSLKPEDTAVYYCAASPQPKTYRRRYYYWGQGTQVTVSS”, “high polyreactivity”; with “QVQLVESGGGLVQAGGSLRLICAASGSTFYSYAMGWYRQVPGKERELVAAISRRGGSTYYADSVKGRFTISRDNAKNTVYLQMNSLKPEDTAVYYCAADWSRSSAEVDYWGQGTQVTVSS”, “high polyreactivity”.
With “QVQLVESGGGLVQAGGSLRLICAASGSTIVYYAMAWYRQAPGKERELVAAISRVGSTNYADSVKGRFTISRDNAKNTVYLQMNSLKPEDTAVYYCNAERSRRYSGWVNYAPLNYWGQGTQVTVSS” the entry was “low polyreactivity”; with “QVQLVESGGGLVQAGGSLRLICAASGSTIYSYAMGWYRQAPGKEREMVAANDWSGTSTYYADSVKGRFTISRDNAKNTVYLQMNSLKPVDTAVYYCNARKRRSYQGGYYYSLRNEYWGQGTQVTVSS”, “high polyreactivity”; with “QVQLVESGGGLVQAGGSLRLICAASGSTSLVYAMGWYRQAPGKERDLVAAISWSGGSTYYADSVKGRFTISRDNAKNTVYLQMNSLKPEDTAVYYCAAEYYGYWEYDYWGQGTQVTVSS”, “high polyreactivity”.
As for “QVQLVESGGGLVQAGGSLRLICAASGSTSPTNAMGWYRQAPGKEREFVAAIRGSGSSTRYADSVKGRFTISRDNAKNTVYLQMNSLKPEDTAVYYFDYWGQGTQVTVSS”, the entry is “low polyreactivity”; as for “QVQLVESGGGLVQAGGSLRLICAASGSTVYNAMGWYRQAPGTEREFVAVITDSDGSTYYADSVKGRFTISRDNAKNTVYLQMNSLKPEDTAVYDCAADDYAYSYGYWLTYDYWGQGTQVTVSS”, “low polyreactivity”; as for “QVQLVESGGGLVQAGGSLRLICAASGTFRINAMGWYRQAPGKEREFVATITSGGSTNYADSVKGRFTISRDNAKNTVYLQMNSLKPEDTAVYYCSRTRKIAGYYFWGQGTQVTVSS”, “high polyreactivity”.
In the case of “QVQLVESGGGLVQAGGSLRLICAASGTNFVFNAIGWYRQAPGKERELVAINSGGSTYYADSVKGRFTNSRDNAKNTVFLQMNSLIPEDTAVYYCAKDRLRVWRFDYWGQGTQVTVST”, the “polyreactivity (PSR sort gate)” value is given as “low polyreactivity”.
With “QVQLVESGGGLVQAGGSLRLICAASGYIFATYAMGWYRQAPGKERELVAAITSTGSTYYADSVKGRFTISRDNAKNTVYLQMNSLKPEDTAVYYCAAVSGYRARYYLYYYWGQGTQVTVSS” the entry was “high polyreactivity”; with “QVQLVESGGGLVQAGGSLRLICAASGYTFKIKGMGWYRQAPGKERELVATIRAGGGNTYYADSVKGRFTISRDNAKNTVYLQMNSLKPEDTAVYYCNARYLRRTMEYWGQGTQVTVSS”, “high polyreactivity”.
As for “QVQLVESGGGLVQAGGSLRLICAASGYTFLDYARGWYRQAPGKERELVASITSSGGSTYYADSVKGRFTISRDNAKNTVFLQMMSLIPEDTAVYYCASDGCIYYYFTLRYGYWGQGTQVTVSS”, the entry is “low polyreactivity”.
